HK-2 cell proliferation (cell count), 150 ng/ml total rice medium protein (5 ng H-EGF) data for one substance are collected here from US20160017353A1.

The target of this assay is EGF receptor (EGFR) (human) (UniProt P00533). The assay is described as follows: cell-based or functional assay.

For “recombinant HSA-EGF fusion protein (human serum albumin fused to the N-terminal end of human EGF), secreted from transgenic rice cell line H-EGF 43 (from UniProt P02768 25-609) (ligand)”, the HK-2 cell proliferation (cell count), 150 ng/ml total rice medium protein (5 ng H-EGF) is 2.9 fold.
